What was measured:
[1] = test system: T1, COP1-interaction-defective VPmt mutant Flag-TRB3
T1 sequence: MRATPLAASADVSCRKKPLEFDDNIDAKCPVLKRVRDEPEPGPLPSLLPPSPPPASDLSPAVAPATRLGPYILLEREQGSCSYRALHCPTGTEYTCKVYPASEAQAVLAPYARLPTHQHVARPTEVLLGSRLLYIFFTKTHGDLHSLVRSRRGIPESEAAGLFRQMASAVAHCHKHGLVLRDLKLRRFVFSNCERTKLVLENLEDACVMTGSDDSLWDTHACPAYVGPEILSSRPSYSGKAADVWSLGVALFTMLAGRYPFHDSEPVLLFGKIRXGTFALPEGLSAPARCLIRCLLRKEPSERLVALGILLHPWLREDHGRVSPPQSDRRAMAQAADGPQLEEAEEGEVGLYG

Flag-tagged TRB3 = test system: T2, Flag-tagged TRB3
T2 sequence: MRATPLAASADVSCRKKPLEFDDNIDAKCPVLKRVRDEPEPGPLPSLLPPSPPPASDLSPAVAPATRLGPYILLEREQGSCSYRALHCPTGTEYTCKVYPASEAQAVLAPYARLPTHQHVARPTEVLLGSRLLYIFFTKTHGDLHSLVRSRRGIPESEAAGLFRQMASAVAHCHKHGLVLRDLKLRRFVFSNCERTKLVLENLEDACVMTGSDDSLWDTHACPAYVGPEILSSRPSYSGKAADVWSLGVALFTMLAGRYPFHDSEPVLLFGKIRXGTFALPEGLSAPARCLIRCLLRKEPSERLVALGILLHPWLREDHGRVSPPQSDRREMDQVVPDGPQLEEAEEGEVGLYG

HA-tagged COP1 (Constitutive Photomorphogenic Protein 1)
degradation of TRB3 protein after removal of MG132 [1]: COP1+DET1 promoted degradation of wild-type but not VPmt TRB3 protein
ubiquitination of TRB3, MS analysis [1]: COP1 promotes ubiquitination of wild-type but not COP1-interaction defective (VPmt) TRB3 at 3 major sites
degradation of TRB3 protein after removal of MG132 (Flag-tagged TRB3): COP1+DET1 promoted degradation of wild-type but not VPmt TRB3 protein
ubiquitination of TRB3, MS analysis (Flag-tagged TRB3): COP1 promotes ubiquitination of wild-type but not COP1-interaction defective (VPmt) TRB3 at 3 major sites

Reference: US20080014583
